Results as given in US20160176984A1 (published 2016).

Tests used:
[1] = target: T1, Fcab wt expressed on yeast (human, UniProt P0DOX5 218-449 = IgG part); test: FACS of yeast-displayed Fcab wt, CD64 staining
T1 construct: also called non-randomized Fc fragments (Fcab wt) expressed on yeast; not shown: Aga2 display fusion partner of the pYD1-derived vector

[2] = target: T2, wild type Fcab (human, UniProt P0DOX5 218-449 = IgG part); test: SPR (Biacore), Fcab captured on Protein A chip, human soluble CD64 at 5 ug/ml as analyte
T2 construct: also called Fcab wt; wtFcab

[3] = target: T3, Her-2 on Her-2 over-expressing human breast cancer cell lines SKBR3 and Calu-3 (human, UniProt P04626 23-1255); test: cell-based or functional assay
[4] = target: T3, Her-2 on Her-2 over-expressing human …; test: FACS on SKBR3 cells, anti-human Fc-PE detection
Method: (§1) Antigen binding was also determined by SPR. Biacore CM5 chips were coated with different amounts of human soluble Her-2 followed by addition of increasing concentrations of Fcabs. […] Antigen binding was also assessed by FACS using the Her-2 over-expressing human breast cancer cell lines SKBR3 and Calu-3. 1×10⁵ cells were incubated with increasing concentrations of Fcabs for 60 minutes on ice. Then, unbound antibodies were removed by centrifugation and washing. Cell bound Fcabs were detected by incubation with anti-human Fc specific antibodies conjugated to phycoerythrin (Sigma) for 60 minutes on ice. After washing the cells, the intensity of fluorescence on the cell surface was measured in a FACS Calibur instrument (Beckton Dickinson).

[5] = target: T4, Human soluble Her-2 (Bender Med Systems, Austria) (human, UniProt P04626 23-652, limits assumed); test: ELISA, human soluble Her-2 coated at 2 ug/ml, anti-Fc CH2-HRP detection
T4 construct: given only as 'human soluble Her-2'; It was biotinylated (sulfo-LC-LC-biotin) for the yeast FACS selections; also called recombinant antigen Her2 (Bendermedsystems); Her2-biotin
Method: Human soluble Her-2 (Bender Med Systems, Austria) was coated to plastic at 2 μg/ml. After washing and blocking unspecific binding sites, increasing concentrations of Fcabs were added. To detect Her-2 bound Fcabs, anti-Fc CH2 domain specific monoclonal antibodies which were conjugated to horse radish peroxidase (Serotec) were added.

[6] = target: T4, Human soluble Her-2 (Bender Med …); test: SPR (Biacore), human soluble Her-2 on CM5 chip, Fcab as analyte
Method: as §1

[7] = target: T4, Human soluble Her-2 (Bender Med …); test: assay not stated; told under affinity maturation and FACS selection with Her2

binding result [1]	binding result [2]	EC50 [4]	EC50 [5]	Kd [6]	EC50 [7]	Binder	SKBR3 cell killing (ADCC with human NK cells, 7-AAD/CFSE FACS), EC50 [3]
binds	binds	–	–	–	–	human soluble CD64 (receptor, UniProt P12314 16-288, looked up, also called CD64 (R&D Systems)) QVDTTKAVITLQPPWVSVFQEETVTLHCEVLHLPGSSSTQWFLNGTATQTSTPSYRITSASVNDSGEYRCQRGLSGRSDPIQLEIHRGWLLLQVSSRVFTEGEPLALRCHAWKDKLVYNVLYYRNGKAFKFFHWNSNLTILKTNISHNGTYHCSGMGKHRYTSAGISVTVKELFPAPVLNASVTSPLLEGNLVTLSCETKLLLQRPGLQLYFSFYMGSKTLRGRNTSSEYQILTARREDSGLYWCEAATEDGNVLKRSPELELQVLGLQLPTP	–
–	–	5.2 nM	16.1 nM	–	–	ABEFs0101 (designed binder, The EF loop is given with 13 residues under 'AA198ff') EPKSCDKTHTCPPCPAPELLGGPSVFLFPPKPKDTLMISRTPEVTCVVVDVSHEDPEVKFNWYVDGVEVHNAKTKPREEQYNSTYRVVSVLTVLHQDWLNGKEYKCKVSNKALPAPIEKTISKAKGQPREPQVYTLPPSRDEYLHGDVSLTCLVKGFYPSDIAVEWESNGQPENNYKTTPPVLDSDGSFFLYSKLTVARYSPSMWRWGHGNVFSCSVMHEALHNHYTQKSLSLSPGK	1 nM
–	–	10.3 nM	4.8 nM	8.6 nM	18.9 nM	H10-03-6 (designed binder, Soluble Fcab; The EF loop is given with 13 residues under 'AA198ff'; also called H10-03-6 clone) EPKSCDKTHTCPPCPAPELLGGPSVFLFPPKPKDTLMISRTPEVTCVVVDVSHEDPEVKFNWYVDGVEVHNAKTKPREEQYNSTYRVVSVLTVLHQDWLNGKEYKCKVSNKALPAPIEKTISKAKGQPREPQVYTLPPSRDEYLHGDVSLTCLVKGFYPSDIAVEWESNGQPENNYKTTPPVLDSDGSFFLYSKLTVPRHSARMWRWAHGNVFSCSVMHEALHNHYTQKSLSLSPGK	1.1 nM
